Each binder was assayed against T1, 16TR-MUC1-Tn (human, UniProt P15941 126-445, limits assumed, Tn glycoform (GalNAcα1-O-Ser/Thr); glycosylated sites of the reagent not stated) (assay: Tn-MUC1 binding ELISA (protocol 4), plate-coated 16TR-MUC1-Tn).
T1 construct: domain: 16TR; also called Tn-MUC1; TnMUC1
T1 sequence (P15941 126-445 limits assumed): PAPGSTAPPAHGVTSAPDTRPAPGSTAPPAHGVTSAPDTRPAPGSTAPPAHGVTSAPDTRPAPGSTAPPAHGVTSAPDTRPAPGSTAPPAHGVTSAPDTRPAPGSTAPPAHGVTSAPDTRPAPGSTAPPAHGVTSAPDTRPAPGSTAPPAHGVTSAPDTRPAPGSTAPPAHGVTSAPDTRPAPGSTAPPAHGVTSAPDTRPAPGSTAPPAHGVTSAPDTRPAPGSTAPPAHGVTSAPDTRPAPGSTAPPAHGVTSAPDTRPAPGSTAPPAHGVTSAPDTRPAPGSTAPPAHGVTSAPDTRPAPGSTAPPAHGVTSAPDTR

Binder	EC50
Mouse 5E5 (antibody, V domains shown, V regions were subcloned into pFUSE-CHIg-hG1 (human IgG1) and pFUSE2-CLIg-hk (human kappa) vectors and expressed in HEK293 cells; also called mouse 5E5 antibody; 5E5VH/5E5VK) VH: QVQLQQSDAELVKPGSSVKISCKASGYTFTDHAIHWVKQKPEQGLEWIGHFSPGNTDIKYNDKFKGKATLTVDRSSSTAYMQLNSLTSEDSAVYFCKTSTFFFDYWGQGTTLTVSS VL: DIVMTQSPSSLTVTAGEKVTMICKSSQSLLNSGDQKNYLTWYQQKPGQPPKLLIFWASTRESGVPDRFTGSGSGTDFTLTISSVQAEDLAVYYCQNDYSYPLTFGAGTKLELK	0.0311 µg/mL
Ab5 (antibody, human IgG1, V domains shown, Expressed as human IgG1/kappa from pFUSE-CHIg-hG1 and pFUSE2-CLIg-hk vectors; also called 5E5RHB10 / 5E5RKB) VH: EVQLVQSGAEVKKPGESLKISCKISGYIFTDHAIHWVRQMPGKGLEWMGHFSPGNTDIKYNDKFKGQVTLSVDRSINTAYLQWSSLKASDTAIYFCKTSTFFFDYWGQGTRVTVSS VL: DIVMTQSPLSLPVTPGEPASISCKSSQSLLNSGDQKNYLTWYLQKPGQSPQLLIYWASTRESGVPDRFSGSGSGTDFTLKISRVEAEDVGVYYCQNDYSYPLTFGGGTKVEIK	0.0269 µg/mL
Ab6 (antibody, human IgG1, V domains shown, Expressed as human IgG1/kappa from pFUSE-CHIg-hG1 and pFUSE2-CLIg-hk vectors; also called 5E5RHC9 / 5E5RKB) VH: EVQLVESGAEVKKPGASVEVSCQASGYTFTDHAIHWVRQAPGQGLEWMGHFSPGNTDIKYNDKFKGRVTMTVDRSINTAYMELRRLRSDDTAVYYCKTSTFFFDYWGQGTMVTVSS VL: DIVMTQSPLSLPVTPGEPASISCKSSQSLLNSGDQKNYLTWYLQKPGQSPQLLIYWASTRESGVPDRFSGSGSGTDFTLKISRVEAEDVGVYYCQNDYSYPLTFGGGTKVEIK	0.0198 µg/mL
Ab2 (antibody, V domains shown, Expressed as human IgG1/kappa from pFUSE-CHIg-hG1 and pFUSE2-CLIg-hk vectors; also called 5E5RHB10 / 5E5RKA) VH: EVQLVQSGAEVKKPGESLKISCKISGYIFTDHAIHWVRQMPGKGLEWMGHFSPGNTDIKYNDKFKGQVTLSVDRSINTAYLQWSSLKASDTAIYFCKTSTFFFDYWGQGTRVTVSS VL: DIVMTQSPDSLAVSLGERATINCKSSQSLLNSGDQKNYLTWYQQKPGQPPKLLIYWASTRESGVPDRFSGSGSGTDFTLTISSLQAEDVAVYYCQNDYSYPLTFGQGTKVEIK	0.0345 µg/mL
Ab4 (antibody, human IgG1, V domains shown, Expressed as human IgG1/kappa from pFUSE-CHIg-hG1 and pFUSE2-CLIg-hk vectors; also called 5E5RHA8 / 5E5RKB) VH: QVQLVQSGAEVKKTGSSVKVSCKASGYTFTDHAIHWVRQAPGQALEWMGHFSPGNTDIKYNDKFKGRVTLTVDRSMSTAYMELSSLRSEDTAMYYCKTSTFFFDYWGQGTMVTVSS VL: DIVMTQSPLSLPVTPGEPASISCKSSQSLLNSGDQKNYLTWYLQKPGQSPQLLIYWASTRESGVPDRFSGSGSGTDFTLKISRVEAEDVGVYYCQNDYSYPLTFGGGTKVEIK	0.0755 µg/mL
Ab1 (antibody, V domains shown, Expressed as human IgG1/kappa from pFUSE-CHIg-hG1 and pFUSE2-CLIg-hk vectors; also called 5E5RHA8 / 5E5RKA) VH: QVQLVQSGAEVKKTGSSVKVSCKASGYTFTDHAIHWVRQAPGQALEWMGHFSPGNTDIKYNDKFKGRVTLTVDRSMSTAYMELSSLRSEDTAMYYCKTSTFFFDYWGQGTMVTVSS VL: DIVMTQSPDSLAVSLGERATINCKSSQSLLNSGDQKNYLTWYQQKPGQPPKLLIYWASTRESGVPDRFSGSGSGTDFTLTISSLQAEDVAVYYCQNDYSYPLTFGQGTKVEIK	0.0246 µg/mL
Ab3 (antibody, V domains shown, Expressed as human IgG1/kappa from pFUSE-CHIg-hG1 and pFUSE2-CLIg-hk vectors; also called 5E5RHC9 / 5E5RKA) VH: EVQLVESGAEVKKPGASVEVSCQASGYTFTDHAIHWVRQAPGQGLEWMGHFSPGNTDIKYNDKFKGRVTMTVDRSINTAYMELRRLRSDDTAVYYCKTSTFFFDYWGQGTMVTVSS VL: DIVMTQSPDSLAVSLGERATINCKSSQSLLNSGDQKNYLTWYQQKPGQPPKLLIYWASTRESGVPDRFSGSGSGTDFTLTISSLQAEDVAVYYCQNDYSYPLTFGQGTKVEIK	0.0615 µg/mL

— patent publication US20170267778A1 (ADC THERPEUTICS S A, published 2017)
